Data as given in publication PMC7173943.

What was measured:
CXCR4(D187C)-T4L = CXCR4(D187C)-T4L (UniProt P61073); assay: cross-linking + pull-down; disulfide cross-linking: Cys mutants co-expressed in Sf9 cells; membranes solubilised in DDM/CHS; TALON metal affinity pull-down by the receptor His tag; non-reducing SDS-PAGE and Western blot (anti-Flag, anti-HA); IR800 signal relative to CXCR4(D187C)-vMIP-II(W5C) set to 100%
HA-CXCR4(D20R)-Rluc3 = HA-CXCR4(D20R)-Rluc3 (UniProt P61073)

Substance	fraction of extracted receptor cross-linked (CXCR4(D187C)-T4L) [%]	β-arrestin-2 recruitment to HA-CXCR4-Rluc3 (BRET2, HEK293T cells), pEC50 (HA-CXCR4(D20R)-Rluc3)
vMIP-II(W5C) (ligand)	100	–
CXCL12(R47E) (from UniProt P48061-2 22-89) (ligand)	–	5.89 -log10(EC50)
